Laboratory results as given in the supplement of paper PMC10126150.
± gives the standard deviation of the averaged measurements.
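Further: ATP exposure 15 min at 22 °C before imaging.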

The sequences below were run on ATP (assay: switch fluorescence ratio, 500 uM ATP over buffer (Cy3 cluster intensity, sum of 5 cycles each) (fold (ratio)); higher = stronger signal-on switching upon ATP binding; sequences stand for … in TCGTCGGCAGCGTCAGATGTGTATAAGAGACAGTTTTTTTTTTTTTTTTTTTTTTTTT…TC). Conditions: aptamer strand: ATP DNA aptamer (quencher-CACCTGGGGGAGTATTGCGGAGGAAGG + anchor), 100 nM annealed; ATP concentration: 500 uM.
In short: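 Clusters carrying Cy3-labelled switching strands on a modified Illumina MiSeq flow-cell were annealed to 100 nM quencher-labelled ATP aptamer and imaged in selection buffer. They were imaged again after 15 min with 500 uM ATP at 22 °C, over five buffer/ATP cycles with NaOH stripping and re-annealing in between. For each cluster, the fluorescence ratio is the summed Cy3 intensity of the target cycles divided by that of the buffer cycles, averaged per switch-domain sequence. Clusters outside 100-1000 RFU were left out.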
In the case of TTGGGTTAGT, the switch fluorescence ratio is reported as 1.01 ± 0.019. Work on TTGGTCTTAC yielded a switch fluorescence ratio of 1.06 ± 0.096. For AACTACTGTG, the switch fluorescence ratio was 1.03 ± 0.056. In the case of ACTAATCGAA, the switch fluorescence ratio is reported as 1.05 ± 0.013. With CATAGGTAAG the switch fluorescence ratio was 0.9837 ± 0.0022. With TGATAATTTT the switch fluorescence ratio was 1 ± 0.039. Work on TTTTTATTTA yielded a switch fluorescence ratio of 0.991 ± 0.025. AGGTGAAAGT gave a switch fluorescence ratio of 0.983 ± 0.029. Sequence TATTCAATGG has a switch fluorescence ratio of 1.02 ± 0.074. AGCCGCTCGT was tested, and the switch fluorescence ratio was 0.99 ± 0.033. CAGGTTTTCT showed a switch fluorescence ratio of 0.9968 ± 0.0018. Sequence TAATCGGCCT has a switch fluorescence ratio of 1.04 ± 0.05. GAAGCCCACG showed a switch fluorescence ratio of 1.09 ± 0.019. In the case of GACTAGTGGT, the switch fluorescence ratio is reported as 1.01 ± 0.035. Sequence GAACATTGAG has a switch fluorescence ratio of 1.019 ± 0.0034. GGTGTTGAAG was tested, and the switch fluorescence ratio was 0.986 ± 0.044. TTATTTATGC gave a switch fluorescence ratio of 1.02 ± 0.055. Work on TTTTATTTTG yielded a switch fluorescence ratio of 1.01 ± 0.057. TGGGGGGGTC gave a switch fluorescence ratio of 0.988 ± 0.048. AAGTGTGGGG was tested, and the switch fluorescence ratio was 1 ± 0.025. GCCGGGGAGC was tested, and the switch fluorescence ratio was 1.02 ± 0.045. For TGGGAGCCTG, the switch fluorescence ratio was 0.987 ± 0.015. CAAATTTGGC showed a switch fluorescence ratio of 0.986 ± 0.027. TTATGGATTT gave a switch fluorescence ratio of 1.01 ± 0.037. Work on GCATGTGAAA yielded a switch fluorescence ratio of 1 ± 0.015. In the case of ATTTTGGTCG, the switch fluorescence ratio is reported as 0.982 ± 0.082. Work on TGTATGTGGT yielded a switch fluorescence ratio of 1 ± 0.048. For GGTGTATAA, the switch fluorescence ratio was 0.995 ± 0.032. For AGTTGGGTAT, the switch fluorescence ratio was 1.02 ± 0.012. For ATTAGGCATG, the switch fluorescence ratio was 1 ± 0.042. TCCTGACGTC gave a switch fluorescence ratio of 1.043 ± 0.0039. Work on TACTATGATT yielded a switch fluorescence ratio of 1.04 ± 0.018. For TTAAAAGGT, the switch fluorescence ratio was 1.04 ± 0.056. In the case of ACTAGGGGGA, the switch fluorescence ratio is reported as 0.986 ± 0.023. Sequence CGTTCCGGGC has a switch fluorescence ratio of 1.2 ± 0.12. Work on AGTGTTTTTT yielded a switch fluorescence ratio of 1.01 ± 0.046. In the case of GGGTCTACA, the switch fluorescence ratio is reported as 0.9714 ± 0.0025. For GGAGAGGGTA, the switch fluorescence ratio was 1.01 ± 0.035. Work on TCTGCGTCTG yielded a switch fluorescence ratio of 1.16 ± 0.2. Sequence GGACAAAAAC has a switch fluorescence ratio of 1.02 ± 0.013. With TTGAGATCCG the switch fluorescence ratio was 0.986 ± 0.053. For AGCTATCCCG, the switch fluorescence ratio was 0.991 ± 0.046. CATTTATTAG was tested, and the switch fluorescence ratio was 0.964 ± 0.0063. With TCAATGTTGG the switch fluorescence ratio was 0.988 ± 0.025. AAAAATTGTT was tested, and the switch fluorescence ratio was 0.986 ± 0.027. In the case of AGCCTACTTT, the switch fluorescence ratio is reported as 1 ± 0.038. For ACAATATTTT, the switch fluorescence ratio was 1.02 ± 0.02. In the case of AGGGTACTTA, the switch fluorescence ratio is reported as 1.05 ± 0.028. Work on GCACCATTCC yielded a switch fluorescence ratio of 1.72 ± 0.07. CCGTGACAAT showed a switch fluorescence ratio of 4.12 ± 0.34. With TCAGCCAGC the switch fluorescence ratio was 1.06 ± 0.012. GGCTTTATGG showed a switch fluorescence ratio of 0.977 ± 0.024. GCGTGACGGG showed a switch fluorescence ratio of 0.989 ± 0.037. For GCGCTCAGAT, the switch fluorescence ratio was 1.02 ± 0.028. For CGGGCTAGGG, the switch fluorescence ratio was 0.9979 ± 0.0049. ACTAATGCTT gave a switch fluorescence ratio of 1.01 ± 0.034. In the case of GGGTAAATGG, the switch fluorescence ratio is reported as 1.02 ± 0.034. For GAGCATAGGG, the switch fluorescence ratio was 1.02 ± 0.013. Work on GGAAGGAGTG yielded a switch fluorescence ratio of 0.987 ± 0.036. Work on GCGGGCTTGG yielded a switch fluorescence ratio of 0.974 ± 0.015. ACGGGAAAGT showed a switch fluorescence ratio of 1.06 ± 0.089. Work on CCAGCGTGGT yielded a switch fluorescence ratio of 1.1 ± 0.019. AGCGGATGCA was tested, and the switch fluorescence ratio was 0.985 ± 0.02. Work on TGCTAGGCTA yielded a switch fluorescence ratio of 1.02 ± 0.025. For GTGTTAACCT, the switch fluorescence ratio was 1.25 ± 0.045. Sequence TTTTGCCATA has a switch fluorescence ratio of 1.02 ± 0.042. TGGTCTTTTC was tested, and the switch fluorescence ratio was 0.986 ± 0.02. GGGTTCAGGC showed a switch fluorescence ratio of 1.05 ± 0.059. AACAGGCTGG showed a switch fluorescence ratio of 1.01 ± 0.013. TTTCTAGGCA was tested, and the switch fluorescence ratio was 1.01 ± 0.03. TCAGCGCTTT was tested, and the switch fluorescence ratio was 0.977 ± 0.032. Work on AAGAGGTGCA yielded a switch fluorescence ratio of 0.989 ± 0.034. In the case of TTAACACGTA, the switch fluorescence ratio is reported as 1.2 ± 0.024. Sequence GGGCGCGGGG has a switch fluorescence ratio of 1.01 ± 0.023. For AGGACTGGTG, the switch fluorescence ratio was 1.01 ± 0.044. Sequence TTGGGAATA has a switch fluorescence ratio of 0.988 ± 0.035. GAGGTTTTGT showed a switch fluorescence ratio of 1 ± 0.023. Work on TGATTACTAG yielded a switch fluorescence ratio of 0.974 ± 0.017. For TTTAGCCCTT, the switch fluorescence ratio was 1.01 ± 0.037. Sequence GGAACGAAGA has a switch fluorescence ratio of 0.98 ± 0.028. ATATTTCTGT showed a switch fluorescence ratio of 0.981 ± 0.019. For CTCAGTCGGG, the switch fluorescence ratio was 0.991 ± 0.01. Work on TTAAAAAAGT yielded a switch fluorescence ratio of 1.01 ± 0.02. GCGATGGTGT showed a switch fluorescence ratio of 1.02 ± 0.008. Sequence TTTCGGTCCC has a switch fluorescence ratio of 1.02 ± 0.021. With ATAGGAGGGA the switch fluorescence ratio was 1.01 ± 0.017. With GGAGGGCAAC the switch fluorescence ratio was 1.01 ± 0.028. With TTTCATGTTT the switch fluorescence ratio was 0.9683 ± 0.007. TTTCAGTTGG showed a switch fluorescence ratio of 1.02 ± 0.015. GCTGGTAAGC was tested, and the switch fluorescence ratio was 0.9696 ± 0.0029. For ATTTGACGTT, the switch fluorescence ratio was 1.003 ± 0.006. ATCTCAGGGC showed a switch fluorescence ratio of 0.979 ± 0.014. Sequence TTTTCGTC has a switch fluorescence ratio of 0.978 ± 0.03. Work on CCGTTCTGGG yielded a switch fluorescence ratio of 0.9786 ± 0.0026. In the case of TTTGGATAAA, the switch fluorescence ratio is reported as 1.04 ± 0.049. TTCCTATCGT was tested, and the switch fluorescence ratio was 1.046 ± 0.0022. CCGGGGAATC gave a switch fluorescence ratio of 2.19 ± 0.57. With TCGTTGTCGT the switch fluorescence ratio was 1.04 ± 0.03. AGGAAACTCG showed a switch fluorescence ratio of 1.03 ± 0.052. CGCATGGGGG gave a switch fluorescence ratio of 1.08 ± 0.011.
